Data: the supplement of paper PMC10567573

B1: CAMK2D (parent)
chain: LLKHPNIVRLHDSISEEGFHYLVF

Variants of: B1
Assay: protein stability index of a GFP-peptide fusion (GPS, HEK-293T) (PSI 1-6); higher = more stable
Conditions: c terminus: a fixed tail appended
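Further: lentivirally expressed fusions sorted by FACS into six bins by GFP to DsRed ratio, PSI derived from sequencing read proportions per bin multiplied by bin number.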

Protein stability index: each site, then its substitutions
F19: G 1.23; S 1.45; M 2.08; P 1.53; T 3.57; C 1.37; A 1.81; Y 2.08
E16: K 1.21; R 1.67; C 2.3; T 1.39; F 2.32; Q 3.03; V 1.39; M 2.71; L 2.47; D 1.67; A 2.88; N 2.87; W 1.92; S 1.19; P 1.62
Y21: L 1.97; M 2.58; D 2.51; R 2.63; K 1.8; W 2.79; E 2.32; I 1.79; N 2.39; S 2.33; A 1.38; H 2.03; T 2.25; Q 2.39; G 2.37; C 2; F 2.92; P 1.96
V23: Y 1.22; P 1.84; R 3.22; Q 1.87; D 2.19; E 1.38; K 1.68; A 2.81; T 3.35; F 1.91; H 2.57; I 1.99; N 3.14; L 2; M 2.91; S 1.85; W 2.78; G 2.12
G18: I 2; P 2.03; C 1.98; T 1.87; W 1.61; D 2.39; S 2.3; Y 1.8; F 2.73; K 3.36; N 1.5; L 3.43; H 1.78; M 2.1; A 3.26; Q 1.94; E 1.63; R 3.12
F24: Y 2.28; C 1.84; K 1.71; P 1.98; L 2.94; G 2.47; E 1.73; R 2.06; S 2.13; N 1.51; H 2.39; A 1.62; D 2.21; T 1.15; W 1.22; Q 1.85; V 2.12
L22: Q 1.3; F 2.36; V 1.03; R 1.28; I 2.96; W 1.88; C 2.18; G 1.57; S 1.81; D 2.08; N 1.75; H 2.19; K 2.54; T 2.39; A 3.02; P 1.81; M 2.59; Y 2.02; E 2.22
S13: Q 1.7; V 3.9; H 2.91; I 2.96; D 2.46; G 2.59; K 2.81; E 1.47; W 1.84; R 1.83; L 2.29; N 2.13; F 1.5; C 2.82; P 2.75; A 3.1; Y 2.94
H11: Y 2.88
E17: L 3.59; S 2.93; N 3.79; W 2.94; P 2.75; H 1.87; R 2.11; D 2.66; T 2.31; Y 2.04; A 2.91; G 2.8; C 2.99; Q 1.84; K 2.71; V 2.47; F 2.27; M 4.04
S15: Y 2.34; K 2.45; V 2.2; F 2.56; I 3.54; N 2.31; E 2.57; R 2.66; A 2.19; M 3.4; P 2.27; L 2.19; C 2.51; G 1.8; D 1.44; W 3.22; T 1.3; H 2.1
